Laboratory results published in the supplement of paper PMC10567573.

B1: DLC1 (parent)
chain: HVTHWMGQPFNSDDRNTACHHGLV

Variants of: B1
Assay: protein stability index of a GFP-peptide fusion (GPS, HEK-293T) (PSI 1-6); higher = more stable
Details: c terminus: a fixed tail appended
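Also: lentivirally expressed fusions sorted by FACS into six bins by GFP to DsRed ratio, PSI derived from sequencing read proportions per bin multiplied by bin number.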

Row | Variant | protein stability index
1 | D13W | 1.6
2 | D13C | 1.8
3 | D13K | 2.32
4 | D13I | 1.92
5 | D13F | 1.81
6 | D13M | 1.13
7 | D13S | 1.72
8 | D13G | 2
9 | D13P | 2.14
10 | D13N | 2.11
11 | D13H | 1.77
12 | D13A | 1.48
13 | D13L | 2.05
14 | D13T | 1.94
15 | D13Q | 1.62
16 | D13Y | 2.26
17 | D13E | 2.07
18 | A18F | 2.24
19 | A18G | 2.06
20 | A18C | 1.83
21 | A18R | 2
22 | A18I | 1.76
23 | A18T | 2.09
24 | A18L | 1.56

Row | Variant | protein stability index
25 | A18P | 1.94
26 | A18Y | 2.37
27 | A18D | 2.69
28 | A18N | 2.44
29 | A18S | 2.21
30 | H21T | 2.02
31 | H21Q | 2.44
32 | H21D | 2.58
33 | H21V | 1.9
34 | H21W | 1.69
35 | H21F | 1.64
36 | H21L | 1.93
37 | H21S | 2.23
38 | H21A | 2.38
39 | H21K | 2.7
40 | H21G | 2.37
41 | H1Q | 2.68
42 | H1S | 2.61
43 | H1R | 2.31
44 | H1K | 2.46
45 | H1G | 3.08
46 | H1P | 3.08
47 | H1F | 1.89
48 | H1M | 2.5

Row | Variant | protein stability index
49 | H1T | 2.91
50 | H1V | 2.51
51 | H1C | 2.04
52 | H1D | 2.68
53 | H1E | 2.78
54 | H1W | 1.78
55 | H1I | 1.83
56 | H1L | 2.14
57 | S12E | 2.52
58 | S12T | 2.02
59 | S12Y | 1.78
60 | S12I | 2.05
61 | S12Q | 1.98
62 | S12L | 2.11
63 | S12C | 1.51
64 | S12H | 2.04
65 | S12R | 2.01
66 | S12P | 2.29
67 | S12V | 1.8
68 | S12F | 1.85
69 | S12W | 1.92
70 | S12K | 2.51
71 | C19Q | 2.61
72 | C19R | 2.4

Row | Variant | protein stability index
73 | C19M | 2.31
74 | C19Y | 1.8
75 | C19I | 2.4
76 | C19D | 2.68
77 | C19A | 2.5
78 | C19G | 1.96
79 | C19L | 2.02
80 | C19N | 2.43
81 | C19P | 2.43
82 | C19F | 1.25
83 | C19K | 2.2
84 | C19E | 2.92
85 | C19W | 1.48
86 | C19S | 2.41
87 | C19V | 2.04
88 | C19H | 2.13
89 | T17Q | 2.38
90 | T17S | 2.36
91 | T17H | 2.23
92 | T17E | 2.32
93 | T17D | 2.65
94 | T17A | 1.99
95 | T17G | 2.04
96 | T17K | 2.01

Row | Variant | protein stability index
97 | T17N | 2.21
98 | T17L | 1.68
99 | T17W | 1.82
100 | T17C | 1.66
101 | T17P | 2.17
102 | T17R | 1.99
103 | T17I | 2.25
104 | G22S | 1.93
105 | G22V | 1.89
106 | G22F | 1.57
107 | G22L | 2.23
108 | G22Y | 1.6
109 | G22W | 2.38
110 | G22P | 2.05
111 | G22T | 2.1
112 | G22C | 2.17
113 | G22M | 1.96
114 | G22D | 2.29
115 | G22H | 1.99
116 | G22R | 2.13
117 | H4L | 1.7
118 | H4V | 2.08
119 | H4R | 1.97
120 | H4A | 1.47

Row | Variant | protein stability index
121 | H4N | 2.11
122 | H4Y | 1.44
123 | H4I | 1.89
124 | H4K | 2.18
125 | H4P | 2.17
126 | H4T | 2.38
127 | H4Q | 1.78
128 | N11I | 1.94
129 | N11H | 1.8
130 | N11C | 2.17
131 | N11F | 1.65
132 | N11S | 1.69
133 | N11D | 2.58
134 | N11V | 2.62
135 | N11P | 2.3
136 | N11T | 2.02
137 | N11R | 2.17
138 | N11M | 2.07
139 | N11W | 3.88
140 | N11A | 2.07
141 | N11Y | 2.26
142 | N11E | 2.58
143 | N11G | 2.13
144 | W5Y | 3.01

Row | Variant | protein stability index
145 | W5D | 4.27
146 | W5K | 3.12
147 | W5C | 3.33
148 | W5R | 3.56
149 | W5L | 2.53
150 | W5Q | 3.47
151 | W5T | 3.43
152 | W5F | 2.72
153 | W5N | 3.86
154 | W5P | 3.3
155 | W5A | 3.26
156 | N16D | 2.35
157 | N16M | 1.76
158 | N16R | 2.16
159 | N16P | 1.64
160 | N16H | 2.43
161 | N16Q | 2.67
162 | N16E | 2.35
163 | N16V | 1.22
164 | N16S | 1.81
165 | N16T | 1.99
166 | N16C | 2.54
167 | N16A | 1.75
168 | N16G | 1.97

Row | Variant | protein stability index
169 | L23Q | 2.38
170 | L23S | 2.24
171 | L23F | 2.02
172 | L23D | 2.84
173 | L23Y | 2.07
174 | L23E | 2.75
175 | L23C | 1.99
176 | L23A | 2.51
177 | L23M | 2.13
178 | L23W | 1.86
179 | L23V | 2.39
180 | L23G | 2.49
181 | L23N | 2.37
182 | L23K | 2.27
183 | Q8E | 2.43
184 | Q8P | 2.1
185 | Q8H | 2.32
186 | Q8K | 2.27
187 | Q8L | 1.22
188 | Q8M | 1.28
189 | Q8C | 2.14
190 | Q8N | 1.92
191 | Q8T | 2.6
192 | Q8F | 2.05

Row | Variant | protein stability index
193 | Q8A | 2.26
194 | Q8D | 2.03
195 | Q8Y | 1.74
196 | Q8G | 1.81
197 | Q8R | 2.15
198 | T3K | 1.91
199 | T3D | 1.66
200 | T3F | 1.69
201 | T3W | 1.4
202 | T3S | 1.64
203 | T3G | 1.19
204 | T3I | 2.01
205 | T3E | 2.38
206 | T3C | 1.8
207 | T3A | 2.5
208 | T3P | 3.11
209 | P9I | 1.75
210 | P9E | 2.3
211 | P9V | 1.55
212 | P9F | 1.43
213 | P9S | 2.06
214 | P9H | 2.23
215 | P9D | 1.99
216 | P9A | 2.36

Row | Variant | protein stability index
217 | P9N | 2.2
218 | P9R | 2.21
219 | P9G | 1.88
220 | P9L | 2
221 | P9Q | 2.4
222 | V2A | 2.8
223 | V2P | 3.15
224 | V2R | 3.05
225 | V2M | 2.71
226 | V2C | 2.48
227 | V2S | 2.62
228 | V2F | 2.71
229 | V2K | 2.65
230 | V2W | 1.98
231 | V2Q | 2.87
232 | V2G | 3.3
233 | V2H | 2.35
234 | V2I | 2.22
235 | D14R | 2.01
236 | D14Y | 1.44
237 | D14V | 1.71
238 | D14C | 1.68
239 | D14H | 2.66
240 | D14I | 1.53

Row | Variant | protein stability index
241 | D14L | 1.31
242 | D14P | 2.16
243 | D14K | 1.47
244 | D14Q | 2.31
245 | D14A | 1.9
246 | D14M | 1.64
247 | R15P | 1.82
248 | R15G | 1.94
249 | R15A | 2.22
250 | R15L | 2.29
251 | R15F | 2.25
252 | R15T | 2.31
253 | R15D | 2.23
254 | R15H | 2.06
255 | R15S | 2.4
256 | R15W | 1.73
257 | R15K | 2.11
258 | R15V | 2.11
259 | R15Y | 1.74
260 | R15C | 1.99
261 | M6W | 2.15
262 | M6A | 2.75
263 | M6L | 1.93
264 | M6I | 2.12

Row | Variant | protein stability index
265 | M6F | 2.02
266 | M6D | 3.03
267 | M6N | 2.92
268 | M6V | 2.48
269 | M6C | 2.86
270 | M6Y | 2.23
271 | M6P | 2.44
272 | M6Q | 2.74
273 | M6R | 2.63
274 | M6H | 2.34
275 | V24I | 2.08
276 | V24H | 2.28
277 | V24F | 1.45
278 | V24S | 2.35
279 | V24M | 2.04
280 | V24P | 2.22
281 | V24L | 2.35
282 | V24E | 2.5
283 | V24A | 2.31
284 | V24K | 2.6
285 | V24D | 2.66
286 | V24C | 2.16
287 | V24N | 2.05
288 | V24Y | 1.69

Row | Variant | protein stability index
289 | V24W | 2.09
290 | V24R | 2.22
291 | G7P | 2.24
292 | G7Y | 1.88
293 | G7D | 2.46
294 | G7E | 2.63
295 | G7S | 1.65
296 | G7N | 2.23
297 | G7R | 1.76
298 | G7V | 1.84
299 | G7W | 3.07
300 | G7F | 2.45
301 | G7T | 1.91
302 | G7I | 2.03
303 | G7K | 1.89
304 | G7Q | 2.07
305 | G7M | 1.39
306 | F10D | 3.03
307 | F10V | 2.36
308 | F10W | 1.93
309 | F10S | 2.35
310 | F10T | 2.29
311 | F10Q | 2.5
312 | F10R | 2.79

Row | Variant | protein stability index
313 | F10H | 2.05
314 | F10G | 2.77
315 | F10M | 2.53
316 | F10P | 2.54
317 | F10C | 1.94
318 | F10Y | 1.92
319 | F10A | 2.53
320 | F10E | 2.75
321 | F10L | 2.01
322 | H20M | 1.79
323 | H20V | 2.34
324 | H20P | 2.5
325 | H20I | 2.13
326 | H20E | 2.44
327 | H20A | 2.37
328 | H20F | 2.3
329 | H20Q | 2.46
330 | H20N | 2.2
331 | H20W | 2.46
332 | H20S | 2.25
333 | H20R | 2.25
334 | H20L | 1.6
